Assays:
Taq DNA polymerase [1] = target: T1, Taq DNA polymerase (UniProt P19821 P19821:1-832); assay: cell_free PCR activity after drying, other; indirect functional evidence: aptamer (0.65 pmol/U Taq) preserves qPCR activity after drying with primers/probes and 1 week at 37 C; Wsebi casein Cp 24.0 vs no; details: tags: glycerol free; Roche AptaTaq when complexed with aptamer
Description: The PCR performance of the polymerase after storage and re-solubilization was analyzed with and without detection mix (with or without primers and probes) using two different parameters. The liquid mixtures were dried 16 hours at 200 mbar and stored for 1 week at 37° C. prior to re-solubilization. As a control a liquid mixture without drying was used, too (called liquid reference in the following).
All mixtures were provided within wells of a 384 microtiter plate (Roche Diagnostic GmbH) and after the re-solubilization a PCR run was performed on the LightCycler®480 (Roche Diagnostic GmbH) using the following run protocol: [0123] 5 minutes 95° C. [0124] 10 seconds 95° C., 30 seconds 60° C., 1 second 72° C. (45×) [0125] 10 seconds 40° C.

Taq DNA polymerase [2] = target: T1, Taq DNA polymerase; assay: indirect functional evidence: 0.5 uM aptamer with 0.8 U/ul Taq preserves qPCR activity after drying with primers/probes and 1 week at 37 C; Wsebi Cp 24.8 vs liquid reference 24.7; 60 mM Tris pH 8.3, 60 mM KCl, 6.4 mM MgCl2; binding not measured directly; details: tags: glycerol free; Roche AptaTaq when complexed with aptamer
Description: The PCR performance of the polymerase with both aptamers were analyzed with detection mix (with primers and probes) after storage and re-solubilization using two different parameters. The liquid mixtures were dried 16 hours at 200 mbar and stored for 1 week at 37° C. prior to re-solubilization. As a control a liquid mixture without drying was used, too (called liquid reference in the following).

T1 sequence (P19821 whole entry, one chain of several): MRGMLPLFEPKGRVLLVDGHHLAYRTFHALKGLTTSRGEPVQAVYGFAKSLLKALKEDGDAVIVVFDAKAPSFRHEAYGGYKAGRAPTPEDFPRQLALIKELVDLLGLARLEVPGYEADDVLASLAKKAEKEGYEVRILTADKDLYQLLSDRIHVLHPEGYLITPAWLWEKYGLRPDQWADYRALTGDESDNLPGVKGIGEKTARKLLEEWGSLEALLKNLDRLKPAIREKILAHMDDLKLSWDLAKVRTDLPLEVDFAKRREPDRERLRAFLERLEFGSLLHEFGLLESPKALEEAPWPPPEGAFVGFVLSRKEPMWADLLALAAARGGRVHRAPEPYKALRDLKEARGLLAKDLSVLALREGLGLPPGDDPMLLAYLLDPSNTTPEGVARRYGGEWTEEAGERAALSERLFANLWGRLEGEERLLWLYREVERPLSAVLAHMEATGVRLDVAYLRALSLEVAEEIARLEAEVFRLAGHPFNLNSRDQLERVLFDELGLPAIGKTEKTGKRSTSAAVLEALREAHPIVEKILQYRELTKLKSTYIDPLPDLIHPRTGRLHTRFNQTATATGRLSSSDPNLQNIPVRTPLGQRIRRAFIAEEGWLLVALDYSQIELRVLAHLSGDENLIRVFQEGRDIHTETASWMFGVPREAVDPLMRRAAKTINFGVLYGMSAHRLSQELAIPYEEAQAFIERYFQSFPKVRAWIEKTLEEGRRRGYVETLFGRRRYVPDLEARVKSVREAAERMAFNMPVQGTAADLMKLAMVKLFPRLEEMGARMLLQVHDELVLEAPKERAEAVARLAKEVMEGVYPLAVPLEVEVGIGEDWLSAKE

Row | Binder | binding result (Taq DNA polymerase [1]) | binding result (Taq DNA polymerase [2])
1 | CGATCATCTCAGAACATTCTTAGCGTTTTGTTCTTGTGTATGATCG (ssDNA) [NTQ12-46A] | binds | –
2 | GATCATCTCAGAACATTCTTAGCGTTTTGTTCTTGTGTATGA (ssDNA) [21-42-P (also printed 21-41-P)] | – | binds

From patent US20100159529, “DRY COMPOSITION OF REACTION COMPOUNDS WITH STABILIZED POLMERASE” (published 2010)
